# Article PMC10781821, “Novel recombinant aminoacylase from Paraburkholderia monticola capable of N-acyl-amino acid synthesis” (Applied Microbiology and Biotechnology, 2024)
# Columns and labels:
# [1] = substrate: CCCCCCCCCCCC(=O)N[C@@H](C)C(=O)O; assay: ninhydrin assay of released amino acid, initial rates; assay type: biochemical, Paraburkholderia monticola; details: hydrolysis, 100 mM Na-borate pH 9.0, Zn2+ (50 µM), 30 °C in Results (Methods print 50 °C)
# [2] = substrate: CCCCCCCCCCCC(=O)N[C@@H](Cc1ccccc1)C(=O)O; assay: as above; assay type: biochemical, Paraburkholderia monticola; details: hydrolysis, 100 mM Na-borate pH 9.0, Zn2+ (50 µM), 30 °C in Results (Methods print 50 °C)
protein,measurement,setting,value
"PmAcy (N-terminally StrepII-tagged aminoacylase) (Paraburkholderia monticola) (protein, full-length codon-optimised gene, N-terminal StrepII-tag with serine-glycine linker kept; E. coli BL21 (DE3) pGro7 (GroEL/S)) MLSLVLPGLSQAQSTLPPAPPAKPVLFTNFRLFDGKSMTLRDGLYMVVEGNSISQLGQGQPASVEGKTLVDCGGKVMMPGLIDMHWHALLAALPIQVILQSDIAFVHLAASAEAERTLLRGFTTIRDAGGPSFALKQAIDSGMISGPRIYPSGAMITTTGGHGDFRPLTDLPRTSSQVTQGERDGGFAIADTEDEMRVRVREQFIQGATQIKLVGSGGVSTPRSPLDMLTFTEKQLRAAVETAADWGTYVLSHAYTPEAVQRSVAAGAQCIEHGHLMDDKTAALMAKNGTWLSTQPFISEEDVGPLAPQSREKFLEVVAGTDNAFRLARKHGIKVAFGTDLLFSQAIATRQGTMLTHMKRWYSPAEALGMATGTNGQLLALTGKRNPYPRRLGVLEEGAYADLLLVDGNPLENLDLIANPEQNLRIVMKDGKFYKNTLKA",Km,[1],1950 µM
same,Km,[2],210 µM
